Biological target: hnRNP K (UniProt P61978 1-463)
Assay: fluorescence anisotropy

Binder | Kd [nM]
UCCUCCUCCCUUCCCCUCCCGGUCCCUA (ssRNA) [mRunx1 int3-4] | 14.5
UCUCUUCCCUCCCUCCUUCCCUCCCCCCAU (ssRNA) [hRUNX1 int3-4] | 13.5
